Article PMC11970842

Target: recombinant trypanothione reductase from Leishmania braziliensis (Leishmania braziliensis) (UniProt A4H480)

Substance: crotapotin from Crotalus durissus terrificus venom (natural protein)
- IC50 of inhibition of LbTR enzymatic activity (reduction of T[S]2, DTNB-coupled, absorbance at 412 nm; 0.04 µM enzyme, crotapotin 0, 100, 150 and 200 µM, 28 °C, pH 7.5): 224 μM
